Data as given in the Immune Epitope Database (IEDB).
pKd: −log10 of the molar value.

Tests used:
HLA-B*18:01 [1] = experiment: IEDB peptide-MHC binding, purified MHC/competitive/radioactivity; filed as Kd, often an IC50 or EC50 that approximates it; ≥ and ≤ were set here for values at or beyond the usual limits of such assays
HLA-B*40:01 [2] = experiment: as above
HLA-B*40:02 = experiment: as above
HLA-B*44:02 [3] = experiment: as above
HLA-B*44:03 = experiment: as above
HLA-B*45:01 = experiment: as above
HLA-B*48:01 = experiment: IEDB peptide-MHC binding, purified MHC/direct/fluorescence; filed as Kd, often an IC50 or EC50 that approximates it; ≥ and ≤ were set here for values at or beyond the usual limits of such assays
HLA-A*02:01 [4] = experiment: IEDB peptide-MHC binding, purified MHC/competitive/fluorescence; filed as Kd, often an IC50 or EC50 that approximates it; ≥ and ≤ were set here for values at or beyond the usual limits of such assays; conditions: source organism: Salmonella enterica subsp. enterica serovar Typhi
HLA-B*15:01 [5] = experiment: as above; conditions: source organism: Salmonella enterica subsp. enterica serovar Typhi
HLA-A*01:01 = experiment: IEDB peptide-MHC binding, purified MHC/direct/fluorescence; filed as Kd, often an IC50 or EC50 that approximates it; ≥ and ≤ were set here for values at or beyond the usual limits of such assays
HLA-A*02:01 [6] = experiment: as above; conditions: source organism: West Nile virus
HLA-A*03:01 = experiment: as above; conditions: source organism: West Nile virus
HLA-A*11:01 = experiment: as above; conditions: source organism: West Nile virus
HLA-A*31:01 = experiment: as above; conditions: source organism: West Nile virus
HLA-A*69:01 = experiment: as above; conditions: source organism: West Nile virus
HLA-B*07:02 = experiment: as above; conditions: source organism: West Nile virus
HLA-B*15:01 [7] = experiment: as above; conditions: source organism: West Nile virus
HLA-B*18:01 [8] = experiment: as above; conditions: source organism: West Nile virus
HLA-B*27:05 = experiment: as above; conditions: source organism: West Nile virus
HLA-B*40:01 [9] = experiment: as above; conditions: source organism: West Nile virus
HLA-B*44:02 [10] = experiment: as above; conditions: source organism: West Nile virus
HLA-B*46:01 = experiment: as above; conditions: source organism: West Nile virus
HLA-B*57:01 = experiment: as above; conditions: source organism: West Nile virus
HLA-B*58:01 = experiment: as above; conditions: source organism: West Nile virus
HLA-B*39:01 = experiment: IEDB peptide-MHC binding, purified MHC/competitive/fluorescence; filed as Kd, often an IC50 or EC50 that approximates it; ≥ and ≤ were set here for values at or beyond the usual limits of such assays; conditions: source organism: West Nile virus
HLA-A*29:02 = experiment: IEDB peptide-MHC binding, purified MHC/direct/fluorescence; filed as Kd, often an IC50 or EC50 that approximates it; ≥ and ≤ were set here for values at or beyond the usual limits of such assays; conditions: source organism: Mycobacterium tuberculosis str. Haarlem
[11] = source organism: SARS coronavirus Tor2
[12] = source organism: West Nile virus
[13] = source organism: Mammarenavirus machupoense
[14] = source organism: Mammarenavirus brazilense
[15] = source organism: Mammarenavirus lassaense

## FEYISDAFSL
HLA-B*18:01 [1]; [11]
  pKd: 5.74
HLA-B*40:01 [2]; [11]
  pKd: 8.78
HLA-B*40:02; [11]
  pKd: 6.08
HLA-B*44:02 [3]; [11]
  pKd: 5.49
HLA-B*44:03; [11]
  pKd: 5.84
HLA-B*45:01; [11]
  pKd: 5.20

## GEENFSSRMY
HLA-B*18:01 [1]; [11]
  pKd: 5.40
HLA-B*40:01 [2]; [11]
  pKd: 5.07
HLA-B*40:02; [11]
  pKd: 4.85
HLA-B*44:02 [3]; [11]
  pKd: 7.24
HLA-B*44:03; [11]
  pKd: 7.17
HLA-B*45:01; [11]
  pKd: 5.49

## RRFLEPVGK
HLA-B*48:01; [12]
  pKd: ≤ 4.70

## RKHGGMLVR
HLA-B*48:01; source organism: Dengue virus 1 Singapore/S275/1990
  pKd: ≤ 4.70

## KEQLQLLMPL
HLA-B*18:01 [1]; [11]
  pKd: 6.74
HLA-B*40:01 [2]; [11]
  pKd: 6.80
HLA-B*40:02; [11]
  pKd: 8.28
HLA-B*44:02 [3]; [11]
  pKd: 6.57
HLA-B*44:03; [11]
  pKd: 7.31
HLA-B*45:01; [11]
  pKd: 6.92

## LEGSISYSEL
HLA-B*18:01 [1]; [11]
  pKd: ≤ 4.35
HLA-B*40:01 [2]; [11]
  pKd: 7.21
HLA-B*40:02; [11]
  pKd: 6.81
HLA-B*44:02 [3]; [11]
  pKd: 5.25
HLA-B*44:03; [11]
  pKd: 5.82
HLA-B*45:01; [11]
  pKd: 5.66

## PEIWLQLNT
HLA-B*18:01 [1]; [13]
  pKd: ≤ 4.11
HLA-B*40:01 [2]; [13]
  pKd: ≤ 4.12
HLA-B*40:02; [13]
  pKd: 5.04
HLA-B*44:02 [3]; [13]
  pKd: 4.84
HLA-B*44:03; [13]
  pKd: 5.63
HLA-B*45:01; [13]
  pKd: ≤ 4.68

## PDFNELFQL
HLA-B*18:01 [1]; [14]
  pKd: ≤ 4.11
HLA-B*40:01 [2]; [14]
  pKd: ≤ 4.63
HLA-B*40:02; [14]
  pKd: 5.77
HLA-B*44:02 [3]; [14]
  pKd: ≤ 4.54
HLA-B*44:03; [14]
  pKd: ≤ 4.64
HLA-B*45:01; [14]
  pKd: ≤ 4.11

## KEAYCQEFFL
HLA-B*18:01 [1]; [15]
  pKd: ≤ 4.52
HLA-B*40:01 [2]; [15]
  pKd: 4.96
HLA-B*40:02; [15]
  pKd: 7.82
HLA-B*44:02 [3]; [15]
  pKd: 6.28
HLA-B*44:03; [15]
  pKd: 5.93
HLA-B*45:01; [15]
  pKd: 4.81

## AESHMDADLA
HLA-B*18:01 [1]; [11]
  pKd: ≤ 4.32
HLA-B*40:01 [2]; [11]
  pKd: 6.79
HLA-B*40:02; [11]
  pKd: 7.20
HLA-B*44:02 [3]; [11]
  pKd: 5.88
HLA-B*44:03; [11]
  pKd: 5.95
HLA-B*45:01; [11]
  pKd: 8.08

## KQRCALPSL
HLA-A*02:01 [4]
  pKd: 6.10
HLA-B*15:01 [5]
  pKd: 6.61

## VHREWFMDL
HLA-A*01:01; [12]
  pKd: ≤ 4.70
HLA-A*02:01 [6]
  pKd: ≤ 4.70
HLA-A*03:01
  pKd: ≤ 4.70
HLA-A*11:01
  pKd: ≤ 4.70
HLA-A*31:01
  pKd: ≤ 4.70
HLA-A*69:01
  pKd: ≤ 4.70
HLA-B*07:02
  pKd: ≤ 4.70
HLA-B*15:01 [7]
  pKd: ≤ 4.70
HLA-B*18:01 [8]
  pKd: ≤ 4.70
HLA-B*27:05
  pKd: ≤ 4.70
HLA-B*40:01 [9]
  pKd: ≤ 4.70
HLA-B*44:02 [10]
  pKd: ≤ 4.70
HLA-B*46:01
  pKd: ≤ 4.70
HLA-B*48:01; [12]
  pKd: ≤ 4.70
HLA-B*57:01
  pKd: ≤ 4.70
HLA-B*58:01
  pKd: ≤ 4.70
HLA-B*39:01
  pKd: 5.83

## LTDSDSPTY
HLA-A*01:01; source organism: Mycobacterium tuberculosis
  pKd: 7.60
HLA-A*29:02
  pKd: 6.85

## LEGYAFEHIV
HLA-B*18:01 [1]; [11]
  pKd: 5.95
HLA-B*40:01 [2]; [11]
  pKd: 4.76
HLA-B*40:02; [11]
  pKd: 5.75
HLA-B*44:02 [3]; [11]
  pKd: ≤ 4.29
HLA-B*44:03; [11]
  pKd: ≤ 4.55
HLA-B*45:01; [11]
  pKd: 6.50

## PEIWLQLNTL
HLA-B*18:01 [1]; [13]
  pKd: 4.71
HLA-B*40:01 [2]; [13]
  pKd: 5.35
HLA-B*40:02; [13]
  pKd: 6.96
HLA-B*44:02 [3]; [13]
  pKd: 4.99
HLA-B*44:03; [13]
  pKd: 5.09
HLA-B*45:01; [13]
  pKd: 4.91

## FELCDNPFF
HLA-B*18:01 [1]; [11]
  pKd: 6.68
HLA-B*40:01 [2]; [11]
  pKd: 7.45
HLA-B*40:02; [11]
  pKd: 7.02
HLA-B*44:02 [3]; [11]
  pKd: 7.49
HLA-B*44:03; [11]
  pKd: 7.24
HLA-B*45:01; [11]
  pKd: 4.75
